In PMC5827449, “Structural analysis of group II chitinase (ChtII) catalysis completes the puzzle of chitin hydrolysis in insects” (The Journal of Biological Chemistry, 2018):

B1: OfChi-h (Ostrinia furnacalis) (protein)
chain: APPGKPSLGWGERTFAIVEVNQAATAYNQLVTKRDSADVSVTWNVWSGDPADKARVLLNDKEFWSGTGGAAGSASFKVKKGGRYQMVVELCNADGCSQSDATEIIVADTDGSHLPPLDYNMGEKNKPFKQTSGKVVGAYFVEWGVYPRKFPVDRVPIPNLTHLLYGFIPICGGDGINDSLKEIEGSFQALQRSCSGREDFKVSIHDPWAALQKPQKGLSSWNEPYKGNFGQLMMLKQAKPDLKILPSIGGWTLADPFFFFTDETKRRRFVASVKDFLQTWKFFDGVDIDWEFPGGKGANPNLGSPKDGEIYVLLMKELREMLNELSAETGRKYELTSAISAGWDKIQVVDYSAAQKYMDHIFFMSYDFKGAWSNDTLGHQASLYAPDWNEKETYTTDFGVQFLLAQGVSPKKIVVGVAMYGRGWTGVHGYKDNNPFTGNATGPVKGTWQDGVVDYREIATEIAQGKWEYHYDKVAQAPYVFRPATGDLITYDDARSTIEKGKYVRANKLGGLFAWEIDADNGDILNAMNMGLGNSA
B2: OfChtII-C2 (Ostrinia furnacalis) (protein)
chain: ERFKVVCYYTNWAWYRPDNGKYTPGDINPELCTHIIYAFAVLDKEELVIKSHDIWLDVENKFYEKVTALKSHGVKVLLGLGGWDDSAGDKYSRLVNNVSARRKFVVHAVDFLEQYGFDGLDLDWEYPKCWQVECEKGPDSDKQGFADLVKELRKAFNRRGMLLSAAVSASKRVIDYAYNVPALSMNLDWISLMTYDYHGQWDKKTGHVAPMYVHDKDTDNTFNVNFTVNYWINKGADRKKLVVGVPFYGQSFSVVEGAGTGLGAPTYAGGEAGDETRARGFLSFYEICERVKVKGWKVHRDPGGRIGPYATHDDQWVSFDDDFMARHKAEYVRAMELGGSMAWSLDLDDFTGKYCGCGKAPLLTTINHVLRGKEAPPPCIL
notes: single GH18 catalytic domain C2 (barrel 2059-2301 and 2377-2426); His-tag purified from Pichia pastoris GS115

How the values were obtained:
[1] = substrate: CC(=O)N[C@H]1[C@H](Oc2ccc3c(C)cc(=O)oc3c2)O[C@H](CO)[C@@H](O[C@@H]2O[C@H](CO)[C@@H](O)[C@H](O)[C@H]2NC(C)=O)[C@@H]1O; assay: fluorescence of released 4-methylumbelliferone; type: biochemical, Ostrinia furnacalis; details: pH 6.0, 20 mM sodium phosphate, 303 K, 20 min, 30.0 °C
Excerpt: fluorescence of released 4-methylumbelliferone on OfChi-h

[2] = substrate: CC(=O)N[C@H]1[C@H](Oc2ccc3c(C)cc(=O)oc3c2)O[C@H](CO)[C@@H](O[C@@H]2O[C@H](CO)[C@@H](O)[C@H](O)[C@H]2NC(C)=O)[C@@H]1O; assay: fluorescence of released 4-methylumbelliferone; type: biochemical, Ostrinia furnacalis; details: pH 6.0, 20 mM sodium phosphate, 303 K, 20 min, 30.0 °C; remark: listed apart in the source
Excerpt: fluorescence of released 4-methylumbelliferone on OfChtII-C2

| Protein | Km [1] [µM] | kcat [1] [s⁻¹] | kcat/Km [1] [M⁻¹ s⁻¹] | Km [2] [µM] | kcat [2] [s⁻¹] | kcat/Km [2] [M⁻¹ s⁻¹] |
| --- | --- | --- | --- | --- | --- | --- |
| B1 | 7.32 ± 0.35 | 3.1378 ± 0.0885 | 429000 |  |  |  |
| B2 |  |  |  | 11.93 ± 0.50 | 0.2037 ± 0.0025 | 17000 |
